Data on one molecule can be found in patent US20050025760A1 (KEIO UNIVERSITY, published 2005).

What all share (assay): immunoprecipitation of point-mutated molecules (FIG. 5)
For assay [1], the target named is T1, Dsg3-M2 (human, UniProt P32926 50-615, T31N; K33Q; I34V).
T1 construct: extracellular domain; also called point-mutated human Dsg3 molecule M2; not shown: His tag of vector pEVmod-His
T1 sequence (looked up): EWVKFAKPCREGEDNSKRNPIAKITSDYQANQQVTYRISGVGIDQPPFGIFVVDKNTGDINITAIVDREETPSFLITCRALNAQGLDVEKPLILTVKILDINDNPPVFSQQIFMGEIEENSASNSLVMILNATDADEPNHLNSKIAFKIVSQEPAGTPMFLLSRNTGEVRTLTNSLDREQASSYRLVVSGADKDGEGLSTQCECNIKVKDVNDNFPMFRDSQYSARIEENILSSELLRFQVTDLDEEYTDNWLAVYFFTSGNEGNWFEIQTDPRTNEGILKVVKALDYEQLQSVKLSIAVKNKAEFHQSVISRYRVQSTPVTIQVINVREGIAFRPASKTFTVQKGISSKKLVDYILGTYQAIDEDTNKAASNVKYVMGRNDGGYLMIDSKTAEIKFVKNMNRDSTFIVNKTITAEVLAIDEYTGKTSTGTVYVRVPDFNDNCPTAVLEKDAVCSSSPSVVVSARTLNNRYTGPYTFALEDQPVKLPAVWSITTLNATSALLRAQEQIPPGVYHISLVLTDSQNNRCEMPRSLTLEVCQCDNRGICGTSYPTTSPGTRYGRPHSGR

Assay [2] deals with T2, Dsg3-M3 (human, UniProt P32926 50-615, V53I; D54N; K55Q; N56K).
T2 construct: extracellular domain; also called point-mutated human Dsg3 molecule M3; not shown: His tag of vector pEVmod-His
T2 sequence (looked up): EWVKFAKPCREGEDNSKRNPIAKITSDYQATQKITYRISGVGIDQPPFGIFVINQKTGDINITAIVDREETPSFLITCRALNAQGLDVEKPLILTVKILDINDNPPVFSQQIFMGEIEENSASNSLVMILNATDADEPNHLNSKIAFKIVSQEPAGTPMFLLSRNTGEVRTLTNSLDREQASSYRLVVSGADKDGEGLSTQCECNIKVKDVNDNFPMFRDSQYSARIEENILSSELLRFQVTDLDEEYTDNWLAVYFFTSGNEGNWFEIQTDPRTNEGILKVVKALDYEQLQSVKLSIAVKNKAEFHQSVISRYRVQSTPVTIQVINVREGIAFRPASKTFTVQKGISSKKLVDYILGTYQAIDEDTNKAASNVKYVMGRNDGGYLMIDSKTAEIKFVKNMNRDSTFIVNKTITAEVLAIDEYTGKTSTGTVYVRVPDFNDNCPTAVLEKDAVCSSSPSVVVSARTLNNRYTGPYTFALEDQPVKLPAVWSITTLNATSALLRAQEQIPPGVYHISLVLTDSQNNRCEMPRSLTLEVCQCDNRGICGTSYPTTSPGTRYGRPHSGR

The target in assay [3] is T3, Dsg3-M5 (human, UniProt P32926 50-615, L75I; T77Y).
T3 construct: extracellular domain; also called point-mutated human Dsg3 molecule M5; not shown: His tag of vector pEVmod-His
T3 sequence (looked up): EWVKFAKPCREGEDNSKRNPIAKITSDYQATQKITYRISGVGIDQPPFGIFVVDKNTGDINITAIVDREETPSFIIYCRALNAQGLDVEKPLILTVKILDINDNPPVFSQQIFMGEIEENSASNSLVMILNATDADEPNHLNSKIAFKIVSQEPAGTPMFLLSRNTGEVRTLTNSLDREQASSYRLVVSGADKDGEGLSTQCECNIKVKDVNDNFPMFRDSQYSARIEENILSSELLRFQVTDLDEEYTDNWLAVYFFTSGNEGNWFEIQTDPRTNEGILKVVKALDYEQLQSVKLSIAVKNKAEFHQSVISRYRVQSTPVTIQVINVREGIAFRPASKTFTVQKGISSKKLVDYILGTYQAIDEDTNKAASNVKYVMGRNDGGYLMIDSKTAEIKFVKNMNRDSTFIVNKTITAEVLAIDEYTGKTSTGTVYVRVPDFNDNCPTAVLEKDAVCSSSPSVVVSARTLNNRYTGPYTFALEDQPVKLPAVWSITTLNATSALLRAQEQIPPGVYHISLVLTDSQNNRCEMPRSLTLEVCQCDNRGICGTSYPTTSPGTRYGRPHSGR

Assay [4] concerns the target T4, Dsg3-M7 (human, UniProt P32926 50-615, V3I; K7A; P8A).
T4 construct: extracellular domain; also called hDsg3-M7
T4 sequence (looked up): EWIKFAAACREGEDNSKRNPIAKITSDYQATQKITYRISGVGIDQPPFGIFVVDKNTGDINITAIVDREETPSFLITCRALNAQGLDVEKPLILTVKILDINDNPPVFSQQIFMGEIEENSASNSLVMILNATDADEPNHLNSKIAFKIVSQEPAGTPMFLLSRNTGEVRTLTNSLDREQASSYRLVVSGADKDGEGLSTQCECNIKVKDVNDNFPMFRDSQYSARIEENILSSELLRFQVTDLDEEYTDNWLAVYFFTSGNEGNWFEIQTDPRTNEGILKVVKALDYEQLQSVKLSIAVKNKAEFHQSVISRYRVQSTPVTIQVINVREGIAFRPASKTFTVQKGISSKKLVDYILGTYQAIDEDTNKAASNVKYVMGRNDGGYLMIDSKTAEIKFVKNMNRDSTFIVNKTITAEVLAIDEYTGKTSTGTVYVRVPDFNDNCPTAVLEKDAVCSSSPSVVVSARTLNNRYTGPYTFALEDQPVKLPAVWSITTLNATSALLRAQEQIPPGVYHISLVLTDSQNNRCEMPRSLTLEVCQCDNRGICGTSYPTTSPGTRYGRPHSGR

B1: anti-Dsg3 monoclonal antibody AK23 (antibody, mouse IgG1, V domains shown)
VH: QVQLQQSGTELVKPGASVKLSCKSSGYTFTSYWINWVKQRPGQGLEWIGNINPSNGGINYNEKFKSKATLTVDKSSSTAYMQLKSLTSEDSAVYYCARGGYDGYPWGQGTTVTVS
VL: DIQMTQSPKFLLVSAGDRVTITCKASQSVSYDVAWYQQKPGQSPKLLISYASNRYTGVPDRFTGSGYGSDFTFTISTVQTEDLAVYFCQQDYSSPWTFGGGTKLELKR
notes: Mouse IgG1 kappa hybridoma antibody
Consider B1, for which the binding result in assay [1] is on record as “binds”; in assay [2], “binds”; in assay [3], “binds”; in assay [4], “no binding”.
